Reference: patent publication US20050042208A1

Target: CD44 existing on the cell surface of CTLs (human) (UniProt P16070)
Assay: cell-based or functional assay

Sequence of UniProt P16070 (P16070 21-742): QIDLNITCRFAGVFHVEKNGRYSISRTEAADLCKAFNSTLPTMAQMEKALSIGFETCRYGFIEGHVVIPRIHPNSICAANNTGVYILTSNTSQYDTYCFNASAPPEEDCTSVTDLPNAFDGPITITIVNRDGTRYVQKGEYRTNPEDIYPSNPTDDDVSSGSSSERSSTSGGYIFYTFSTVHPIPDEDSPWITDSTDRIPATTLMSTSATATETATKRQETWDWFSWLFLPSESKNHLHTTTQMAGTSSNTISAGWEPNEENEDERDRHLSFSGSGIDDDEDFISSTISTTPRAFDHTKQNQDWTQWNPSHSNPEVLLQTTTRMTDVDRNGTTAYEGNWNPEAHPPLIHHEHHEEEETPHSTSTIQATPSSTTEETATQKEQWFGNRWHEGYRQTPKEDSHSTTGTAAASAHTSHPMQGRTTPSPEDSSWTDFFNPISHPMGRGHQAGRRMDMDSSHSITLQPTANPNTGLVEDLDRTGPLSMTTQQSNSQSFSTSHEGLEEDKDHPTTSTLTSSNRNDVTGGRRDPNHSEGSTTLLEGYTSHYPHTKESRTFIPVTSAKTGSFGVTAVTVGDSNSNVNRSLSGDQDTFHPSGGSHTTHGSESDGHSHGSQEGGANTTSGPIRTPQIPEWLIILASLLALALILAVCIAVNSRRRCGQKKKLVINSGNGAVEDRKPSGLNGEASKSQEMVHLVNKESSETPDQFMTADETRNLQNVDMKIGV

## anti-CD44 antibody (hyaluronic acid-bound Non-blocking antibody; HA Non-blocking Anti-CD44 Antibody), monoclonal, manufactured by Ancell
  Cytotoxic Activity (%), E/T Ratio 3, peptide pulse +, after expansion with antibody: 32.4%
  Cytotoxic Activity (%), E/T Ratio 3, peptide pulse -, after expansion with antibody: 10.3%
  Cytotoxic Activity (%), E/T Ratio 10, peptide pulse +, after expansion with antibody: 60.1%
  Cytotoxic Activity (%), E/T Ratio 10, peptide pulse -, after expansion with antibody: 14.2%
  Cytotoxic Activity (%), E/T Ratio 30, peptide pulse +, after expansion with antibody: 105%
  Cytotoxic Activity (%), E/T Ratio 30, peptide pulse -, after expansion with antibody: 21.2%
